Results on 1 molecule are retold here after PMC11065761 (The Journal of Biological Chemistry, 2024).

The target of this assay is C3b. The experiment in a line: SPR. (SPR reads the build-up and loss of mass on a sensor chip optically.)

B1: TriFu_no_linker (triple fusion complement inhibitor without polyglycine linker between DAF and FH) (other)
chain: DCGLPPDVPNAQPALEGRTSFPEDTVITYKCEESFVKIPGEKDSVICLKGSQWSDIEEFCNRSCEVPTRLNSASLKQPYITQNYFPVGTVVEYECRPGYRREPSLSPKLTCLQNLKWSTAVEFCKKKSCPNPGEIRNGQIDVPGGILFGATISFSCNTGYKLFGSTSSFCLISGSSVQWSDPLPECREIYCPAPPQIDNGIIQGERDHYGYRQSVTYACNKGFTMIGEHSIYCTVNNDEGEWSGPPPECRGGKCGPPPPIDNGDITSFPLSVYAPASSVEYQCQNLYQLEGNKRITCRNGQWSEPPKCLHPCVISREIMENYNIALRWTAKQKLYSRTGESVEFVCKRGYRLSSRSHTLRTTCWDGKLEYPTCAKRGHCQAPDHFLFAKLKTQTNASDFPIGTSLKYECRPEYYGRPFSITCLDNLVWSSPKDVCKRKSCKTPPDPVNGMVHVITDIQVGSRINYSCTTGHRLIGHSSAECILSGNTAHWSTKPPICQRIPCGLPPTIANGDFISTNRENFHYGSVVTYRCNLGSRGRKVFELVGEPSIYCTSNDDQVGIWSGPAPQCII
The Kd is the free concentration of one partner at which half of the binding sites on the other are occupied at equilibrium, for simple one-to-one binding. Read a low Kd as a tighter complex. On to B1, for which the Kd came out at 98 nM.
